# Experimental data published in IntAct's records for PubMed 16712842.
# B1: UV excision repair protein RAD23 homolog B (Homo sapiens), P54727 (parent)
# chain: MQVTLKTLQQQTFKIDIDPEETVKALKEKIESEKGKDAFPVAGQKLIYAGKILNDDTALKEYKIDEKNFVVVMVTKPKAVSTPAPATTQQSAPASTTAVTSSTTTTVAQAPTPVPALAPTSTPASITPASATASSEPAPASAAKQEKPAEKPAETPVATSPTATDSTSGDSSRSNLFEDATSALVTGQSYENMVTEIMSMGYEREQVIAALRASFNNPDRAVEYLLMGIPGDRESQAVVDPPQAASTGAPQSSAVAAAAATTTATTTTTSSGGHPLEFLRNQPQFQQMRQIIQQNPSLLPALLQQIGRENPQLLQQISQHQEHFIQMLNEPVQEAGGQGGGGGGGSGGIAEAGSGHMNYIQVTPQEKEAIERLKALGFPEGLVIQAYFACEKNENLAANFLLQQNFDED
# Variants of: B1
# Details: with ef1a1_human EEF1A1, P68104
# Chain of ef1a1_human EEF1A1, P68104 (P68104 whole entry): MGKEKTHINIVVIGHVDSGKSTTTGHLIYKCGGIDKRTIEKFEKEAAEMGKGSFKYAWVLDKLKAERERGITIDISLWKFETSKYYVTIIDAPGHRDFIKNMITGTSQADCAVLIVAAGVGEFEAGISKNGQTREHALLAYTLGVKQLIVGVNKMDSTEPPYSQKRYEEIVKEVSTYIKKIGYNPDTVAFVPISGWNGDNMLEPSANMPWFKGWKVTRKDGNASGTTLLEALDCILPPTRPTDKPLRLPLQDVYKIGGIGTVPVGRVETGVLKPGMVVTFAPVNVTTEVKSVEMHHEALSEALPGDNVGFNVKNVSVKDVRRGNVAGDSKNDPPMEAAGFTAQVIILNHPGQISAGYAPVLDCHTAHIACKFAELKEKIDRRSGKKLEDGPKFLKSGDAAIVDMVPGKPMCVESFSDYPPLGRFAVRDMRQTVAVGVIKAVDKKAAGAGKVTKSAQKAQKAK
row,Variant,effect of a mutation on the interaction
1,K6A,disrupting interaction

# Variants of: B1
# Details: with uba3_human UBA3, Q8TBC4
# Chain of uba3_human UBA3, Q8TBC4 (Q8TBC4 whole entry): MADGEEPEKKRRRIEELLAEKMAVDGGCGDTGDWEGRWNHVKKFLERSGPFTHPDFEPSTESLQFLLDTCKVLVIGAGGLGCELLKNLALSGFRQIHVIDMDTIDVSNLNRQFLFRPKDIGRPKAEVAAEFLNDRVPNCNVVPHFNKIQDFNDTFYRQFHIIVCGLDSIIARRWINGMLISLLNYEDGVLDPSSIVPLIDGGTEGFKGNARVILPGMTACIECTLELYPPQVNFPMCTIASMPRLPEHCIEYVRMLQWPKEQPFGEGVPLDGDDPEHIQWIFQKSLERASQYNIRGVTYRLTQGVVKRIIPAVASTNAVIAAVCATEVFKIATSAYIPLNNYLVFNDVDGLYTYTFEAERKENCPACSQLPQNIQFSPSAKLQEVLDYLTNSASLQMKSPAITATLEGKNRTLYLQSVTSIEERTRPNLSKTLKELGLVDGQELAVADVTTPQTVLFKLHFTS
row,Variant,effect of a mutation on the interaction
1,K6A,increasing interaction
